Reference: patent publication US20240166594A1, “PHOTOCAGED CITRULLINE ANALOGS AND METHODS FOR SITE-SPECIFIC INCORPORATION OF CITRULLINE INTO PROTEINS” (University of Massachusetts, priority 2021, published 2024)
Several values for one entry are separate records, joined by “and”; a condition that tells them apart may be missing. Identical values can stand only once. One block for each compound: values may come before it. Where a SMILES comes first, the peptide text is derived from it.

Columns and labels:
WT PAD4 = target: T1, WT PAD4 (Homo sapiens, UniProt Q9UM07); assay: Thermal shift assay with GSK199, wild-type PAD4; format: binding; settings: GSK199 10 μM, EXPI293F lysate
T1 construct: FLAG (N); His tag (C); expressed in transfected cells; host or cells: EXPI293F
Description: (§1) A 50 μL reaction mixture (EXPI293F lysate containing overexpressed wild-type PAD4 (1.5 mg/mL) or R374Cit mutant (2 mg/mL), 1×PBS and DMSO (1% final)) was heated at various temperatures (25, 40, 50, 60, 65, 70, 75, 85 and 90° C.) for 5 min followed by flash freezing with liquid nitrogen. The samples were thawed and the precipitated proteins were separated by centrifugation (15000 rpm, 30 min) at 4° C. 40 μL of the supernatant was mixed with 10 μL of 5×SDS-PAGE loading dye and the mixture was boiled at 95° C. for 10 min. The proteins were separated by SDS-PAGE using a 4-20% gradient gel and the soluble fractions of PAD4 were quantitated by western blot analysis using a rabbit polyclonal anti-PAD4 antibody. This assay was also performed separately in the presence of CaCl2 (1 mM final) and a PAD4-selective ligand, GSK199 (10 μM final). For these assays, the reaction mixture was incubated with CaCl2 or GSK199 at room temperature for 5 min before heating up at different temperatures. All the reactions were performed at least in duplicate.

R374Cit PAD4 = assay: Thermal shift assay with GSK199, R374Cit PAD4; format: binding; settings: GSK199 10 μM
Description: as §1

[1] = Solubility of decaged peptide observed during SM70 decaging; format: physicochemical; settings: decaged peptide from SM70; turbid even in 1:1 acetonitrile/PBS
Description: FIG. 10. (A) Decaging of SM70, a PAD4-derived peptide (residues 363-372 with SM60 at the 372 position. Prolines at 365 and 371 positions were replaced with W and A, respectively, and a lysine residue was added to the C-terminus for ease of synthesis.). (B) HPLC chromatogram of SM70 before and after 5 min of 365 nm irradiation. […] Even after performing the reaction in 1:1 acetonitrile/PBS, the solution became turbid upon the formation of the decaged peptide. Assay condition: 200 μM SM70, 2 mM DTT, 1:1 acetonitrile/PBS (pH 7.4). (C) ESI mass spectrum of the citrulline-containing peptide (decaged product).

HEK293T cells = assay: Cytotoxicity of PAD4 expression in HEK293T cells (CellTiter-Blue); format: cell-based
Description: HEK293T cells were seeded (2×10^4 cells/well) on 96-well plate and were allowed to grow in DMEM (supplemented with 10% heat-inactivated fetal bovine serum, 100 units/mL penicillin, 100 μg/mL streptomycin) for 48 h. Cells were then transfected with appropriate plasmids (120 ng PAD4 plasmid and 80 ng pIDTSMART eRF1 E55D for each well) using Lipofectamine 2000 (500 ng for each well) in Opti-MEM medium (Gibco). After 5 h, the medium was changed to DMEM and DMSO (for WT PAD4) or SM60 (0.25, […] and 1 mM for R374Cit PAD4) was added. Cells were then allowed to grow at 37° C. for 48 h. Cell viability was measured before and after photodecaging (by UV treatment for 3 min) using CellTiter-Blue® (Promega) by following the manufacturer's protocol. Untransfected cells served as the control. All the experiments were performed in triplicate.

[2] = Michaelis-Menten kinetics of wild-type and mutant PAD4 (COLDER assay); format: biochemical; settings: substrate BAEE, 10 mM CaCl2, pH 7.4, 37° C.
Description: PAD4 (50 nM final for wild-type, 75 nM final for R372Cit, and 100 nM final for R374Cit) was added to a pre-warmed (10 min, 37° C.) reaction mixture (60 μL final) containing various concentrations of BAEE (0, 0.5, 1, 2.5, 5 and 10 mM), CaCl2 (10 mM), TRIS-HCl (100 mM, pH 7.4), NaCl (50 mM) and DTT (2 mM). This mixture was incubated at 37° C. for 45 min (for wild-type), 90 min (for R374Cit) and 120 min (for R372Cit) followed by quenching with liquid nitrogen. The rate of citrulline formation at various BAEE concentrations was quantified with the COLDER assay. The rates were plotted against the BAEE concentration and were fit to the Michaelis-Menten equation using Graphpad Prism. All the reactions were performed at least in duplicate.

[3] = Calcium-dependence of wild-type PAD4 (COLDER assay); format: biochemical; settings: 10 mM BAEE, pH 7.4, 37° C.
Description: PAD4Bac (purified from bacterial expression system) and PAD4Mam (purified from mammalian expression system) (6 μL of 0.5 μM stock, 50 nM final) were added to separate pre-warmed (10 min, 37° C.) reaction mixtures (60 μL final) containing BAEE (10 mM), various concentrations of CaCl2 (0, 0.25, 0.5, 1, 2.5, 5 and 10 mM), TRIS-HCl (100 mM, pH 7.4), NaCl (50 mM) and DTT (2 mM). This mixture was incubated at 37° C. for 45 min followed by flash freezing with liquid nitrogen. The production of citrulline at various concentration of CaCl2 by PAD4 was quantified with the COLDER assay. (Tanikawa, et al. 2012 Nat. Commun. 3, 676; Zhang, et al. 2012 Proc. Natl. Acad. Sci. USA 109, 13331-13336.)
The calcium-dependence of citrulline production by PAD4 was fit to the equation 2,
v=Vmax*[Ca^2+]^h/(K0.5^h+[Ca^2+]^h) (2)
using Graphpad Prism, where v is the velocity of the reaction, Vmax is the maximum velocity of the reaction, [Ca^2+] is the concentration of calcium, h is the hill slope and K0.5 is the calcium concentration that gives half-maximal velocity. All the reactions were performed at least in duplicate.

[4] = Thermal shift assay, melting temperature of PAD4 in EXPI293F lysate; format: physicochemical; settings: no ligand
Description: as §1

histone H3 = assay: Histone H3 citrullination in live HEK293T cells (western blot); format: cell-based; settings: calcium and ionomycin, 3 h
Description: HEK293T cells were seeded (4×10^5 cells/well) on 6-well plates and were allowed to grow in DMEM (supplemented with 10% heat-inactivated fetal bovine serum, 100 units/mL penicillin, 100 μg/mL streptomycin) for 48 h. Cells were then transfected with appropriate plasmids (3 μg PAD4 plasmid and 2 μg pIDTSMART eRF1 E55D for each well) using Lipofectamine 2000 (12.5 μg for each well) in Opti-MEM medium (Gibco). After 5 h, the medium was changed to DMEM and DMSO (for WT PAD4) or SM60 (1 mM for R374Cit PAD4) was added. Cells were then allowed to grow at 37° C. for 48 h. Cells were washed with serum-free DMEM (supplemented with 100 units/mL penicillin, […] streptomycin), resuspended in the same medium and were irradiated with 365 nm UV for 3 min. Then the cells were treated with CaCl2 (1 mM) and a combination of CaCl2 (1 mM) and ionomycin (5 μM) for 3 h at 37° C. After this, cells were lysed and the lysates were analyzed by Western blotting using anti-histone H3 citrulline (R2,8,17) and anti-histone H3 primary antibodies. PAD4 expression was quantified by using an anti-PAD4 primary antibody. Band intensities for citrullinated histone H3 were normalized against those for histone H3 and PAD4 using the following algorithm,
Normalized histone H3Cit=[H3Cit/(H3_33 PAD4)]×10^6
All the experiments were performed in triplicate.

T1 sequence (Q9UM07 whole entry G112A): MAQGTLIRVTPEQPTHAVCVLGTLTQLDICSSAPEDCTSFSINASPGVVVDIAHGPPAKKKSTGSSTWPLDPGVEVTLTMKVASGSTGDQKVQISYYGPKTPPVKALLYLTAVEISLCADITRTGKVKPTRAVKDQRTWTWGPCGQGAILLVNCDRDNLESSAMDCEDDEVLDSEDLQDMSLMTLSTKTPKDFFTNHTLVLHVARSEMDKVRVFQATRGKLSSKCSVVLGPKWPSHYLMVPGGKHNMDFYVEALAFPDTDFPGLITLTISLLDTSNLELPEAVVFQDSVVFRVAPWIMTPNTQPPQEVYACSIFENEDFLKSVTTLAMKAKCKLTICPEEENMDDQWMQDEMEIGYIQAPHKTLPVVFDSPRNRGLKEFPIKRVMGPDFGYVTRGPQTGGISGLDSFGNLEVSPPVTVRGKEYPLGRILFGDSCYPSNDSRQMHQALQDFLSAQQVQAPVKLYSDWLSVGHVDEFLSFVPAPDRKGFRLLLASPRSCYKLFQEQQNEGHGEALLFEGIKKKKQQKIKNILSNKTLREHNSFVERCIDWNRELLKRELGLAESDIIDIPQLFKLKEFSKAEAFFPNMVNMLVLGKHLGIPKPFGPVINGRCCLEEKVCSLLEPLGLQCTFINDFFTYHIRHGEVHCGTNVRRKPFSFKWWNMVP

effect on Tm of WT PAD4 (WT PAD4): increased the Tm of WT PAD4
binding to R374Cit mutant (R374Cit PAD4; inferred from thermal shift): binds poorly to the R374Cit mutant
Compound: CCn1c(-c2nc3cc(C(=O)N4CCCC(N)C4)cc(OC)c3n2C)cc2cccnc21 (stereo not shown) [GSK199]
effect on Tm of R374Cit PAD4 (R374Cit PAD4; EXPI293F lysate): did not increase the Tm of the R374Cit mutant

Compound: CC(C)C[C@H](NC(=O)[C@@H](N)[C@@H](C)O)C(=O)N[C@@H](Cc1c[nH]c2ccccc12)C(=O)N[C@H](C(=O)N[C@H](C(=O)N[C@@H](Cc1ccccc1)C(=O)N[C@@H](CC(=O)O)C(=O)N[C@@H](CO)C(=O)N[C@@H](C)C(=O)N[C@@H](CCCNC(N)=O)C(=O)N[C@@H](CCCCN)C(=O)O)C(C)C)C(C)C [decaged product] (HELM PEPTIDE1{T.L.W.V.V.F.D.S.A.[Cit].K}$$$$V2.0)
solubility in aqueous buffer [1]: extremely low solubility in aqueous buffer

Compound: PAD4: Protein Arginine Deiminase 4 (WT and R374Cit) overexpressed in HEK293T cells
cytotoxicity of expression (HEK293T cells): does not cause any cytotoxicity

Compound: PAD4Bac: wild-type PAD4 purified from bacterial (E. coli) expression system
Km [2]: 700 ± 100 µM
kcat [2]: 3.4 ± 0.2 S^−1
K0.5 (Ca^2+ concentration for half-maximal activity) [3]: 0.9 mM and 0.9 ± 0.10 mM

Compound: PAD4Mam: wild-type PAD4 purified from mammalian expression system (HEK293T), N-terminal FLAG and C-terminal His tag
Km [2]: 1100 ± 200 µM
kcat [2]: 3.7 ± 0.1 S^−1
K0.5 (Ca^2+ concentration for half-maximal activity) [3]: 0.9 mM and 0.9 ± 0.05 mM

Compound: WT PAD4: wild-type Protein Arginine Deiminase 4
melting temperature (Tm) [4]: 62.9 °C
times more active than the R374Cit mutant for the citrullination of histone H3 (histone H3): 6 times
